Experimental data reported in patent US20060122105A1, “Method of improing the growth performance of an animal” (priority 2001, published 2006).

Columns and labels:
Format in all cases: in vivo
[1] = system: Actinobacillus pleuropneumoniae (App); assay: App challenge of pigs, therapeutic IL-1ra at low and high doses or Excenel (Example 7); settings: for feed consumed: FIG. 52
Method: Male pigs with a mean starting weight of 34.6 kg, were allocated to 4 treatment groups of 9 pigs each. Treatments were saline, IL-1ra at 2 μg per kg, IL-1ra at 10 μg per kg and Excenel, the current clinical treatment for App infection. Pigs were housed in pens of 3 pigs, with 3 replicates of each. Pigs were provided with pelleted feed and water ad libitum. The starting weights of each treatment group and each pen were equal prior to the start of the trial.
Pigs were anaesthetised and infected intratracheally with 7.5×10^5 pfu on day 0. Recombinant IL-1ra and saline were administered as 2ml doses, given subcutaneously behind the ear. Excenel was administered to pigs according to the manufacturer's instructions. Pigs were treated with IL-1ra, saline or Excenel at 24 h, 48 h and one week after challenge with App.
Blood was sampled from pigs by venipuncture at 0 h, 24 h, 48 h, 1 week and 2 weeks after infection. Blood was assayed for immunological parameters as previously described. Pigs were weighed the day prior to challenge, and days 6 and 13 after challenge.

[2] = system: Actinobacillus pleuropneumoniae (App); assay: App challenge of pigs, prophylactic recombinant IL-1ra, plasmid IL-1ra or flunix (Example 5); settings: day 13 after challenge compared with pre-challenge levels; FIG. 35
[3] = system: Actinobacillus pleuropneumoniae (App); assay: as above; design: improvements in weight gain over saline controls / reduction in weight gain compared to saline controls / reduction in clinical symptoms compared to saline / reduction of pleurisy compared to saline treated controls / reduction in affected lung mass compared to saline treated controls: concentration or dose not given beside the values
Method: Male pigs, with a mean starting weight of 52 kg, were allocated to 5 treatment groups as outlined in Table 6. Pigs were housed in group pens, with each pen containing a replicate from each of the treatment groups. The starting weights of each treatment group and each pen were equal prior to the start of the trial. Pigs were provided with pelleted feed and water ad libitum.
Recombinant IL-1ra and saline-were administered as 1 ml doses, given subcutaneously behind the ear. Plasmids were administered in 1 ml doses, given intramuscularly in the hind-leg. Flunix was administered as a 2 ml dose according to the manufacturer's instructions, and delivered intramuscularly in the neck. The timetable of administration is outlined in Table 6 below.
Prior to challenge, pigs were treated with recombinant cytokines, flunix or plasmids as described Table 7. Pigs were anaesthetised and infected intratracheally with 7.5×10^5 pfu App on day 0.
Blood was sampled from pigs by venipuncture at 0, 24 h and 14 days post-challenge. Blood was assayed for immunological parameters as previously described. Pigs were weighed weekly from delivery of plasmids and for 2 weeks after challenge.
At the conclusion of the trial, pigs were euthanased and the lungs removed for post-mortem examination. Lungs were scored for pleurisy from 0-5 (FIGS. 39 and 40) and the degree of pleuropneumonia was determined by weighing affected lung and expressed as a percentage of total lung weight (FIGS. 41 and 42). Pigs treated with flunix and IL-1ra had less pleurisy than the saline controls (FIG. 39).

[4] = system: haemorrhagic E. coli; assay: Haemorrhagic E. coli challenge of weaner pigs, prophylactic treatment (Example 3); settings: for reduction of E. coli culture score at post-mortem compared to saline: FIG. 19
Method: Male weaner pigs, with a mean weight of 5.4 kg were allocated to groups of 8, with the mean weight being equalised between groups. Pigs were housed in group pens containing a replicate from each treatment group. Pigs were provided with pelleted feed and water ad libitum.
Pigs were treated with recombinant saline, IL-1ra or the antibiotic, Apralan, and challenged with E. coli according to the schedule outlined in Table 3. Saline, or 200 μg of IL-1ra were delivered intramuscularly in 1 ml doses. Apralan was delivered orally according to manufacturer's instructions at a dose of 12 mg/kg. E. coli challenges were delivered orally in an 8 ml dose containing 10^8 cfu/ml. Blood was sampled from pigs by venipuncture at −2 days, day 0, and +6 days from initial challenge with E. coli as outlined in Table 3. Blood was assayed for immunological parameters including white blood cell number, differential cell counts, lymphocyte subset enumeration, IgG levels and cytokine production. Pigs were weighed at day −2 and at the end of the trial on day 6.
Faecal samples were taken from each pig daily for 5 days from day 2 to day 6 after challenge; these samples were cultured on sheep blood agar to quantify E. coli load. Growth on sheep blood agar was scored from 0 to 5 (where 0 was no growth, 1 signified growth in the primary inoculum, 2 signified growth in the first streak, 3 signified growth in the 2nd streak, 4 signified growth in the 3rd streak, and 5 signified growth of E. coli in the final streak). The condition of faeces was noted as normal, wet or diarrhoea, as an indication of clinical signs.
At the conclusion of the experiment on day 7, pigs were euthanased and swabs were taken from different areas in the gastro-intestinal tract, including the small intestine (25%, 50% and 75% along the length of the small intestine), the caecum and colon, and from the faeces in situ. These post-mortem swabs were cultured on sheep blood agar to quantify E. coli load as described above.

[5] = system: Actinobacillus pleuropneumoniae (App); assay: App challenge of pigs, prophylactic low or high doses of IL-1ra or IL-1ra+IL-4 (Table 8); settings: for rate of gain: last 10 days of challenge, FIG. 44
Method: Blood was sampled from pigs by venipuncture at −24 h, +0 h, +24 h and +3 weeks from challenge. Blood was assayed for immunological parameters as previously described. Pigs were weighed at day −1, day 10 and at 3 weeks.

B1: IL-1ra: Recombinant porcine IL-1ra expressed in E. coli and purified using a polyhis tag system (protein, UniProt Q29056 26-177, looked up)
Interleukin-1 receptor …: HPLGKRPCRMQAFRIWDVNQKTFYLRNNQLVAGYLQGPNTKLEEKIDVVPVEPHFVFLGIHGGKLCLSCVKSGDEMKLQLDAVNITDLRKNSEQDKRFTFIRSDSGPTTSFESAACPGWFLCTALEADQPVGLTNTPKAAVKVTKFYFQQDQ
modifications: polyhistidine tag
notes: Recombinant porcine IL-1ra expressed in E. coli and purified using a polyhis tag system
- feed consumed ([1]; IL-1ra at high dose (10 μg per kg)): 1.8 kg of feed per day
- weight gained in the second week of challenge ([1]; IL-1ra at low dose (2 μg per kg), Excenel per manufacturer's instructions, FIG. 51): 5.7 kg
- feed consumed ([1]; IL-1ra at low dose (2 μg per kg), Excenel per manufacturer's instructions): 1.7 kg of feed per day
- production of IL-8 in the caudal-mediastinal lymph nodes ([1]; low dose IL-1ra, Excenel, compared to saline treated controls): reduced the production of IL-8
- feed conversion ratio (FCR, feed:gain) ([1]; low dose IL-1ra, FIG. 53): 1.6
- proliferative responses of lymphocytes in the presence of killed App ([1]; low dose IL-1ra, FIG. 54): tended to have improved proliferative responses of lymphocytes
- production of the pro-inflammatory cytokine IL-8 in lung tissue (mRNA at post-mortem) ([1]; low doses, compared to other treatments, FIG. 55): reduced the production
- levels of TNFα protein in the serum [2]: reduced levels of TNFα
- improvements in weight gain over saline controls ([3]; 14d App challenge, FIG. 33): 53.8%
- daily rate of gain ([3]; 14d challenge with App, FIG. 32): 667 g per day
- reduction in clinical symptoms compared to saline ([3]; FIG. 38): 72%
- heavier at the termination of the experiment than saline treated peers ([3]; after 2 weeks of challenge): 4 kg
- improvement in growth vs saline ([3]; after 2 weeks of challenge): 69%
- production of IL-6 (mRNA in peripheral blood) ([3]; after App challenge, compared with saline treated controls, FIG. 36): reduce the production
- growth during the week of challenge ([3]; first week after App challenge, FIG. 30): positive growth
- clinical signs of App disease (mean clinical scores over 30 visits) ([3]; first week of challenge, vs saline-treated controls, p<0.05, FIG. 37): significantly reduced clinical signs of disease
- reduction in affected lung mass compared to saline treated controls ([3]; percentage of lung affected by App lesions, FIG. 42): 73.9%
- reduction of pleurisy compared to saline treated controls ([3]; pleurisy score 0-5 at necropsy, FIG. 40): 22%
- decrease in faecal shedding, faecal scores tallied over the entire challenge period, compared to saline treated controls ([4]; 5 days after E. coli challenge, FIG. 15): 37%
- recorded cases of wet faeces and diarrhoea (clinical signs) ([4]; 5 days after E. coli challenge, FIG. 16): fewer recorded cases of wet faeces and diarrhoea
- group mean total E. coli culture score, all gut areas at post-mortem ([4]; FIG. 20): less than 10 out of a possible 30
- reduction of E. coli culture score at post-mortem compared to saline ([4]; anterior part of the small intestine): 71%
- reduction of E. coli culture score at post-mortem compared to saline ([4]; caecum): 39%
- reduction of E. coli culture score at post-mortem compared to saline ([4]; colon): 44%
- reduction in clinical signs compared to saline controls ([4]; faecal condition, FIG. 17): 64%
- days on which bacterial shedding was significantly less than saline treated controls ([4]; faecal cultures): 3/5
- reduction of E. coli culture score at post-mortem compared to saline ([4]; faeces in situ): 23%
- reduction of E. coli culture score at post-mortem compared to saline ([4]; mid small intestine): 51%
- reduction in E. coli in the hindgut area (caecum and colon) compared to saline controls ([4]; post-mortem, FIG. 23): 42%
- reduction of bacterial load in the small intestine (foregut) compared with saline controls ([4]; post-mortem, FIG. 23): 55%
- reduction of E. coli culture score at post-mortem compared to saline ([4]; posterior small intestine): 47%
- reduction in the amount of E. coli in the gastro-intestinal tract compared to saline controls ([4]; total culture scores at post-mortem, FIG. 21): 45%
- period of reduced bacterial shedding in faeces after challenge ([4]; vs saline, FIG. 14): day 2 through to day 4
- Change compared to saline treated controls: Change in clinical signs ([4]; ↓ (decrease)): 63.6%
- Change compared to saline treated controls: Change on faecal bacterial load ([4]; ↓ (decrease)): 36.5%
- Change compared to saline treated controls: E. coli at post-mortem ([4]; ↓ (decrease)): 44.6%
- Change compared to saline treated controls: E. coli in foregut ([4]; ↓ (decrease)): 55.4%
- Change compared to saline treated controls: E. coli in hindgut ([4]; ↓ (decrease)): 41.7%
- Change compared to saline treated controls: Presence of bacterial shedding in faeces ([4]; ↓ (decrease)): 3 days
- improved growth compared to saline treated controls ([5]; 21 days of App challenge, low and high doses, FIG. 46): 13.5%
- amount of lung affected by App lesions ([5]; high dose, FIG. 47): reduced the amount of lung affected by App lesions
- production of the pro-inflammatory cytokine IL-8 (mRNA in lung tissue) ([5]; high dose, FIG. 49): greatly reduced
- increase in rate of gain vs saline ([5]; high dose, first 10 days of App challenge, FIG. 43): > 100 g/day
- degree of pleurisy seen at post-mortem ([5]; high doses, FIG. 48): reduced
- production of TNFα (mRNA in lung tissue) ([5]; high doses, FIG. 50): inhibited
- rate of gain ([5]; high doses): 1170 g/day
- weight gained during the 21-day challenge period ([5]; low and high doses, FIG. 45): 17.9 kg
- rate of gain ([5]; low doses): 1250 g/day
